Laboratory results as given in PMC6933771.

Target: human prothrombin (human)

staphylocoagulase (natural protein)
amidolytic activity of the SCG-PT complex on the chromogenic thrombin substrate S-2238, specific activity relative to human thrombin (9.1 IU/nmol): 5.5 IU/nmol | clotting activity of the SCG-PT complex in human plasma, specific activity relative to human thrombin: 4.2 IU/nmol | clotting activity of the SCG-PT complex on purified human fibrinogen (3.0 g/L), specific activity relative to human thrombin: 3.6 IU/nmol
